Data from patent US20250179550A1, “Methods to imbue polymeric materials with new structures and functions” (The Regents of the University of California, priority 2022, published 2025).

Experiments:
MicD-F = assay: Reaction of protein substrates (mCherry and Rop variants) with MicD-F, LC-MS deconvoluted mass; assay type: biochemical, Microcystis aeruginosa; details: for cyclodehydration of mCherry variants to thiazoline (loss of water) / cyclodehydration of Rop variants to thiazoline: 50 mol % MicD-F; for cyclodehydration of mCherry variants to thiazoline (loss of water): 24 hours
Description: Reactions of proteins with MicD-F were performed in the manner described above with minor modifications. Namely, the substrate stock was a 1 mM solution of protein in 20 mM HEPES, 150 mM NaCl, 1 mM TCEP, pH 7.4.
(§1) Unprocessed reaction mixture (1 μL) was used for LC-MS analysis which was performed on an Agilent 1290 Infinity II HPLC connected to an Agilent 6530B QTOF AJS-ESI. The mobile phase for LC-MS was water and acetonitrile with 0.1% (v/v) formic acid and a flow rate of 0.4 mL/min. Each sample was injected onto a Poroshell 300SB-C8 column (2.1×75 mm, 5-Micron, room temperature, Agilent) using a linear gradient from 5 to 55% acetonitrile over 8 minutes after an initial hold at 5% acetonitrile for 2 minutes (0.4 mL/min). The following parameters were used during acquisition: Fragmentor voltage 225 V, gas temperature 300° C., gas flow 10 L/min, sheath gas temperature 350° C., sheath gas flow 11 L/min, nebulizer pressure 35 psi, skimmer voltage 65 V, Vcap 5000 V, 1 spectra/s. Intact protein masses were obtained via deconvolution using the Maximum Entropy algorithm in Mass Hunter Bioconfirm (V10, Agilent).

[1] = Circular dichroism of Rop variants (wavelength scans and temperature melts); assay type: physicochemical; details: CD at 222 nm; for TM (melting temperature): 20 μM, 10 mM phosphate, 100 mM NaCl, 150 μM TCEP, pH 7.0
Description: RopN, RopM, and RopC were exchanged into CD buffer (10 mM phosphate, 100 mM NaCl, 150 μM TCEP, pH 7.0) using Amicon Ultra-0.5 mL centrifugal filters (MilliporeSigma, Burlington, MA) with a 3 kDa molecular weight cut-off according to the manufacturer's instructions and then diluted with the same buffer to a concentration of 20 μM. For CD analysis each Rop variant was transferred to a 1 mm quartz cuvette. Wavelength and temperature dependent CD spectra were collected with an AVIV Biomedical, Inc. (Lakewood, NJ) Circular Dichroism Spectrometer Model 410. For wavelength-dependent spectra, initial scans were performed from 200 to 300 nm at 25° C. in 2 nm increments with an averaging time of 5 seconds. For temperature melt experiments, the signal was monitored at 222 nm with an averaging time of 5 seconds. Temperature melts were performed from 5 to 90° C. in 1° C. increments with equilibration for 2 minutes before each measurement. Following the temperature melt the sample was returned to 25° C. and the wavelength-dependent CD spectra was measured once more to assess the reversibility of the melt. Raw data (mdeg) were converted to molar ellipticity ([Θ], in deg*cm^2*dmol^−1) by
where M is the mean residual weight (116.00 g/mol for RopN, RopM, and RopC), L is the pathlength of the cuvette in centimeters, and C is the concentration of the sample in g/L.7 The melting temperature was determined by fitting the molar ellipticity as a function of temperature to a Boltzmann sigmoidal curve using GraphPad Prism (Version 7.04).
CD analysis of RopC-U and RopC-Z was performed as described for RopN, RopM, and RopC with the following modifications. Temperature melts were performed from 5 to 90° C. in 2.5° C. increments. Before measuring the temperature melt for RopC-Z, the protein was refolded by performing an initial melt from 5 to 90° C. in 2.5° C. increments as described.

MicD-F and ArtGox = assay: Reaction of protein substrates with MicD-F and ArtGox in tandem, LC-MS deconvoluted mass; assay type: biochemical, Microcystis aeruginosa; Arthrospira platensis; details: 50 mol % MicD-F, 80 mol % ArtGox, 24 hours, pH 9.0, 37° C.
Description: Reactions of proteins with MicD-F and ArtGox were performed in the manner described above with minor modifications. The substrate stock was a 1 mM solution of protein in 20 mM HEPES, 150 mM NaCl, 1 mM TCEP, pH 7.4. Reactions were carried out at either 25° C. or 37° C. as indicated.
as §1

[2] = Analytical size-exclusion chromatography of Rop variants; assay type: physicochemical; details: 50 μM
Description: To assess the homogeneity of isolated Rop variants, a solution of each protein was prepared (250 μg at 50 μM) in running buffer (10 mM phosphate, 100 mM NaCl, 150 µM TCEP, pH 7.0). A Superdex® 75 Increase 10/300 GL column (stored and operated at 4° C.) was washed with 2 column volumes (CV) of degassed and sterile filtered MilliQ water. The column was then equilibrated in running buffer for 2 CV. Each sample (500 μL) was applied to a 500 μL sample loop. The sample loop was washed with 2 mL of running buffer at 0.8 mL/min to load the sample onto the column. The sample was then eluted from the column by flowing running buffer at 0.8 mL/min for 1.30 CV. To assess column performance, a gel filtration standard (Bio-Rad Laboratories, Hercules, CA, catalog number 151-1901) containing 670 kDa, 158 kDa, 44 kDa, 17 kDa, and 1.35 kDa standards was used according to the manufacturer's instructions.

[3] = Temperature stability of MicD-F; assay type: physicochemical

B1: mCherry174+ (protein, listed as Discosoma sp.)
chain: MDYKDDDDKMVSKGEEDNMAIIKEFMRFKVHMEGSVNGHEFEIEGEGEGRPYEGTQTAKLKVTKGGPLPFAWDILSPQFMYGSKAYVKHPADIPDYLKLSFPEGFKWERVMNFEDGGVVTVTQDSSLQDGEFIYKVKLRGTNFPSDGPVMQKKTMGWEASSERMYPEDGALKGEIKQRLKLKDMCAYDGGGHYDAEVKTTYKAKKPVQLPGAYNVNIKLDITSHNEDYTIVEQYERAEGRHSTGGMDELYKHHHHHH
With B1 the “cyclodehydration of mCherry variants to thiazoline (loss of water)” value (“cyclodehydration … (loss of water)” below) (MicD-F; pH 9.0, 37° C.) was “no evidence of cyclodehydration” and the “cyclodehydration … (loss of water)” value (MicD-F; pH 9.0, 42° C.) was “no evidence of cyclodehydration”.

B2: mCherry192+ (protein, listed as Discosoma sp.)
chain: MDYKDDDDKMVSKGEEDNMAIIKEFMRFKVHMEGSVNGHEFEIEGEGEGRPYEGTQTAKLKVTKGGPLPFAWDILSPQFMYGSKAYVKHPADIPDYLKLSFPEGFKWERVMNFEDGGVVTVTQDSSLQDGEFIYKVKLRGTNFPSDGPVMQKKTMGWEASSERMYPEDGALKGEIKQRLKLKDGGHYDAEVKTTYKAKKPVMCAYDGQLPGAYNVNIKLDITSHNEDYTIVEQYERAEGRHSTGGMDELYKHHHHHH
With B2 the “cyclodehydration … (loss of water)” value (MicD-F; pH 9.0, 37° C.) was “no evidence of cyclodehydration” and the “cyclodehydration … (loss of water)” value (MicD-F; pH 9.0, 42° C.) was “no evidence of cyclodehydration”.

B3: RopC: Rop variant with loop sequence GGGGMCAYDG, SEQ ID NO: 3 (protein, listed as Escherichia coli)
chain: MDYKDDDDKMTKQEKTALNMARFIRSQTLTLLEKLNELGGGGMCAYDGDEQADICESLHDHADELYRSCLARFGDDGENLHHHHHH
With B3 the “cyclodehydration of Rop variants to thiazoline” value (“cyclodehydration of Rop variants” for short) (MicD-F; pH 9.0, 37° C., 16 h) was “clean conversion”, the “conversion of RopC into RopC-U” value (MicD-F; up to 50 μM MicD-F, 16 h, 25° C.) was “minimal” and the “unfolding behaviour in temperature melt” value [1] was “melted cooperatively and reversibly”. The “TM (melting temperature)” value [1] was 28 °C, the “conversion to the thiazole-modified protein” value (MicD-F and ArtGox) was “complete conversion” and the “migration / homogeneity on SEC” value [2] was “discrete dimers”.

B4: MicD-F: constitutively activated cyclodehydratase, leader peptide fused to N-terminus of MicD, SEQ ID NO: 7 (protein, listed as Microcystis aeruginosa)
chain: MSHHHHHHDYDENLYFQGSRLTAGQLSSQLAELSEEALGDAGAGAGAGAGAKLMQSTPLLQIQPHFHVEVIEPKQVYLLGEQANYALTGQLYCQILPLLDGQHSREQIVEKLDGEVPSEYIDYVLDRLAEKGYLTEAAPELSSEVAAFWSELGIAPPVAAEALRQSVTLTPVGNISEVTVAALTTALRDIGISVQTPTEAGSPTALNVVLTDDYLQPELAKINKQALESQQTWLLVKPVGSVLWLGPVFVPGKTGCWDCLAHRLRGNREVEASVLQQKQAQQQRNGQSGSVIGCLPTARATLPSTLQTGLQFAATEIAKWIVKHHVKATAPGTVFFPTLDGKIITFNHTVIDLKSHVLVRRSQCPSCGDRQILHRQGFEPVKLVSRRKHFTHDGGHRAFTPEQTVQKYQHLVSPITGVVTELVRLTDPANPLVHTYKAGHAFGSATTLRGLRNTLKYKSSGKGKTDIQSRASGLCEAIERYSGIFQGDEPRKRATLAELGDLALHPESLLYFSNTQYANREELNAQGSAAAYRWIPNRFDVSQAIDWTPVWSLTEQKHKYVPTAFCYYGYPLPEEQRFCKADSNGNAAGNTLEEAILQGFLELVERDSIAMWWYNRIRRPAVDLSTFDEPYFVDLQQFYQQQNRELWVLDVTADLGIPAFAGFSRRTVGTSERISIGFGAHLDPTIAILRALTEVSQVGLELDKIPDDKLDGESKDWMLNVTVENHPWLAPDPSVPMKTASDYPKRWSDDIHTDVMNCVKTAQTAGLEVMVLDQTRPDIGLNVVKVIIPGMRTFWTRFGQGRLYDIPVKLGWLDAPLAEEELNQTNIPF
In the case of B4, the “highest temperature at which MicD-F remained stable” value [3] is reported as 42 °C.

B5: RopM: Rop variant with loop sequence GGMCAYDGGG, SEQ ID NO: 2 (protein, listed as Escherichia coli)
chain: MDYKDDDDKMTKQEKTALNMARFIRSQTLTLLEKLNELGGMCAYDGGGDEQADICESLHDHADELYRSCLARFGDDGENLHHHHHH
For B5, the “cyclodehydration of Rop variants” value (MicD-F; pH 9.0, 37° C., 16 h) was “reacted partially”, the “unfolding behaviour in temperature melt” value [1] was “melted cooperatively and reversibly” and the “TM (melting temperature)” value [1] was 32 °C. For the same molecule, the “migration / homogeneity on SEC” value [2] was “discrete dimers”.

B6: RopN: Rop variant with loop sequence MCAYDGGGGG, SEQ ID NO: 1 (protein, listed as Escherichia coli)
chain: MDYKDDDDKMTKQEKTALNMARFIRSQTLTLLEKLNELMCAYDGGGGGDEQADICESLHDHADELYRSCLARFGDDGENLHHHHHH
For B6, the “cyclodehydration of Rop variants” value (MicD-F; pH 9.0, 37° C., 16 h) was “unreactive”, the “unfolding behaviour in temperature melt” value [1] was “melted non-cooperatively” and the “TM (melting temperature)” value [1] was 43 °C. The “migration / homogeneity on SEC” value [2] was “heterogeneous mixture”.
